Assays:
[1] = Immunogenicity (anti-therapeutic antibody, ATA); format: in vivo, human; settings: 365 patients tested
Source text: As with all therapeutic proteins, there is a potential for immunogenicity. The detection of antibody formation is highly dependent on the sensitivity and specificity of the assay. Additionally, the observed incidence of antibody (including neutralizing antibody) positivity in an assay may be influenced by several factors including assay methodology, sample handling, timing of sample collection, concomitant medications, and underlying disease. For these reasons, comparison of the incidence of antibodies in the studies described below with the incidence of antibodies in other studies or other enfortumab vedotin products may be misleading.
A total of 365 patients were tested for immunogenicity to PADCEV; 4 patients (1%) were confirmed to be transiently positive for anti-therapeutic antibody (ATA), and 1 patient (0.3%) was confirmed to be persistently positive for ATA at any post-baseline time point. No impact of ATA on efficacy, safety and pharmacokinetics was observed.

[2] = Cardiac electrophysiology (QTc); format: in vivo, human; settings: at the recommended dose; large = >20 msec
[3] = EV-201 laboratory abnormalities; format: in vivo, human
Procedure: The data described in this section reflect exposure to PADCEV from EV-201, a single arm study in patients (n=125) with locally advanced or metastatic urothelial cancer who had received prior treatment with a PD-1 or PD-L1 inhibitor and platinum-based chemotherapy. Patients received PADCEV 1.25 mg/kg on Days 1, 8 and 15 of a 28-day cycle until disease progression or unacceptable toxicity. The median duration of exposure to PADCEV was 4.6 months (range: 0.5-15.6). […]

[4] = EV-201 adverse reactions; format: in vivo, human
Procedure: The data described in this section reflect exposure to PADCEV from EV-201, a single arm study in patients (n=125) with locally advanced or metastatic urothelial cancer who had received prior treatment with a PD-1 or PD-L1 inhibitor and platinum-based chemotherapy. Patients received PADCEV 1.25 mg/kg on Days 1, 8 and 15 of a 28-day cycle until disease progression or unacceptable toxicity. The median duration of exposure to PADCEV was 4.6 months (range: 0.5-15.6).

[5] = test system: rats; experiment: Repeat-dose toxicology studies in rats; format: in vivo, rat
[6] = Population pharmacokinetic analysis in patients; format: in vivo, human
Source text: Population pharmacokinetic analysis included data from 369 patients based on three Phase 1 studies and one Phase 2 study. Enfortumab vedotin-ejfv pharmacokinetics were characterized after single and multiple doses in patients with locally advanced or metastatic urothelial carcinoma and other solid tumors.
Steady-state concentrations of ADC and MMAE were reached after 1 treatment cycle.

[7] = EV-201, denominator 121 or 122 patients
[8] = EV-201, patients who experienced rash
[9] = ADC, after first treatment cycle of 1.25 mg/kg, Days 1, 8 and 15

enfortumab vedotin-ejfv [PADCEV]
impact of ATA on efficacy, safety and pharmacokinetics [1]: No impact
patients persistently positive for ATA at any post-baseline time point ([1]; 1 patient): 0.3%
patients transiently positive for anti-therapeutic antibody (ATA) ([1]; 4 patients): 1%
QTc prolongation [2]: no large QTc prolongation
Creatinine increased, Grade 3-4 [3, 7]: 2%
Creatinine increased, Grades 2-4 [3, 7]: 20%
Glucose increased, Grade 3-4 [3, 7]: 8%
Hemoglobin decreased, Grade 3-4 [3, 7]: 10%
Hemoglobin decreased, Grades 2-4 [3, 7]: 34%
Leukocytes decreased, Grade 3-4 [3, 7]: 4%
Leukocytes decreased, Grades 2-4 [3, 7]: 14%
Lipase increased, Grade 3-4 [3, 7]: 9%
Lipase increased, Grades 2-4 [3, 7]: 14%
Lymphocytes decreased, Grade 3-4 [3, 7]: 10%
Lymphocytes decreased, Grades 2-4 [3, 7]: 32%
Neutrophils decreased, Grade 3-4 [3, 7]: 5%
Neutrophils decreased, Grades 2-4 [3, 7]: 14%
Phosphate decreased, Grade 3-4 [3, 7]: 10%
Phosphate decreased, Grades 2-4 [3, 7]: 34%
Sodium decreased, Grade 3-4 [3, 7]: 8%
Sodium decreased, Grades 2-4 [3, 7]: 8%
Urate increased, Grade 3-4 [3, 7]: 7%
Urate increased, Grades 2-4 [3, 7]: 7%
patients with non-fasting glucose >160-250 mg/dL ([3]; EV-201, fasting glucose not measured, 23 patients): ^†CTCAE Grade 2 is defined as fasting glucose >160-250 mg/dL. Fasting glucose levels were not measured in EV-201. However, 23 (19%) patients had non-fasting glucose >160-250 mg/dL.
herpes zoster ([4]; EV-201): 3%
infusion site extravasation ([4]; EV-201): 2%
median time to onset of Grade >=2 peripheral neuropathy ([4]; EV-201): 3.8 months
median time to onset of severe skin reactions ([4]; EV-201): 0.8 months
peripheral neuropathy: complete resolution at last evaluation ([4]; EV-201): 19%
peripheral neuropathy: partial improvement at last evaluation ([4]; EV-201): 26%
Alopecia, Grade >= 3 ([4]; EV-201, n = 125): 0%
Any adverse reaction, All Grades ([4]; EV-201, n = 125): 100%
Any adverse reaction, Grade >= 3 ([4]; EV-201, n = 125): 73%
Decreased appetite, Grade >= 3 ([4]; EV-201, n = 125): 2%
Dry skin, Grade >= 3 ([4]; EV-201, n = 125): 0%
Dysgeusia, Grade >= 3 ([4]; EV-201, n = 125): 0%
Nausea, Grade >= 3 ([4]; EV-201, n = 125): 3%
Peripheral neuropathy (grouped term), Grade >= 3 ([4]; EV-201, n = 125): 4%
Pruritus, All Grades ([4]; EV-201, n = 125): 26%
Pruritus, Grade >= 3 ([4]; EV-201, n = 125): 2%
Vomiting, All Grades ([4]; EV-201, n = 125): 18%
Vomiting, Grade >= 3 ([4]; EV-201, n = 125): 2%
adverse reactions leading to discontinuation ([4]; EV-201, n = 125): 16%
adverse reactions leading to dose interruption ([4]; EV-201, n = 125): 64%
adverse reactions leading to dose reduction ([4]; EV-201, n = 125): 34%
dose interruption due to fatigue ([4]; EV-201, n = 125): 6%
dose interruption due to peripheral neuropathy ([4]; EV-201, n = 125): 18%
dose interruption due to rash ([4]; EV-201, n = 125): 9%
dose reduction due to fatigue ([4]; EV-201, n = 125): 4%
dose reduction due to peripheral neuropathy ([4]; EV-201, n = 125): 12%
dose reduction due to rash ([4]; EV-201, n = 125): 6%
fatal adverse reaction: acute respiratory failure ([4]; EV-201, n = 125): 0.8%
fatal adverse reaction: aspiration pneumonia ([4]; EV-201, n = 125): 0.8%
fatal adverse reaction: cardiac disorder ([4]; EV-201, n = 125): 0.8%
fatal adverse reaction: sepsis ([4]; EV-201, n = 125): 0.8%
fatal adverse reactions ([4]; EV-201, n = 125): 3.2%
peripheral neuropathy leading to treatment discontinuation ([4]; EV-201, n = 125): 6%
serious adverse reaction: diarrhea ([4]; EV-201, n = 125): 4%
serious adverse reaction: fatigue ([4]; EV-201, n = 125): 2%
serious adverse reaction: nausea ([4]; EV-201, n = 125): 2%
serious adverse reaction: rash ([4]; EV-201, n = 125): 3%
serious adverse reaction: vomiting ([4]; EV-201, n = 125): 2%
serious adverse reactions ([4]; EV-201, n = 125, 1.25 mg/kg Days 1, 8, 15 of 28-day cycle): 46%
rash: complete resolution [4, 8]: 65%
rash: partial improvement [4, 8]: 22%
patients who developed Grade 3-4 hyperglycemia ([4]; EV-201, baseline hemoglobin A1C >=8% excluded): 8%
potential indicated by repeat-dose toxicity studies in rats [5]: impair male reproductive function and fertility
reversal of testes and epididymis findings by end of recovery period ([5]; up to 13 weeks): did not reverse
findings in testes and epididymis ([5]; up to 13 weeks, doses >=2 mg/kg, exposures similar to recommended human dose): decreases in testes and epididymis weights, seminiferous tubule degeneration, spermatid/spermatocyte depletion in the testes and cell debris, sperm granuloma and hypospermia/abnormal spermatids in the epididymis
exposure (AUC) in mild, moderate or severe renal impairment ([6]; 1.25 mg/kg, compared to normal renal function): No significant differences
AUC0-28 d, Mean (±SD) [6, 9]: 111 (38) μg · d/mL
Cmax, Mean (±SD) [6, 9]: 28 (6.8) μg/mL
accumulation following repeat administration ([6]; patients): Minimal accumulation
estimated mean steady-state volume of distribution ([6]; patients): 11 L
mean clearance (CL) ([6]; patients): 0.10 L/h
steady-state concentrations reached after ([6]; patients): 1 treatment cycle
time of peak ADC concentrations ([6]; patients, intravenous infusion): near the end of intravenous infusion
elimination half-life ([6]; patients, multi-exponential declines): 81.6 h
differences in pharmacokinetics based on age (24 to 87 years), sex, or race/ethnicity ([6]; population pharmacokinetic analysis): no clinically significant differences

Source: US20230025600A1, “TREATMENT OF CANCERS WITH ANTIBODY DRUG CONJUGATES (ADC) THAT BIND TO 191P4D12 PROTEINS” (AGENSYS, INC., priority 2019, published 2023)
